Measurements reported in publication PMC9394474 (Viruses, 2022).

Experiments:
Test in all cases: ITC
Settings in all cases: both partners purified
hisMBP-TRIM7-CC-PRYSPRY = hisMBP-TRIM7-CC-PRYSPRY (human, UniProt Q9C029 165-511)
mouse TRIM7-PRYSPRY = target: T1, mouse TRIM7-PRYSPRY (mouse, UniProt Q923T7 342-510)
T1 construct: vector pOPTH; also called mTRIM7; mTrim7-PRYPSRY

human hisTRIM7-PRYSPRY = target: T2, human hisTRIM7-PRYSPRY (human, UniProt Q9C029 342-511)
T2 construct: vector pOPTH; also called hTRIM7-PRYSPRY; hTRIM7

B1: hexahistidine-tagged full-length human GYG1, GN1 isoform (natural protein)
chain: MTDQAFVTLTTNDAYAKGALVLGSSLKQHRTTRRLVVLATPQVSDSMRKVLETVFDEVIMVDVLDSGDSAHLTLMKRPELGVTLTKLHCWSLTQYSKCVFMDADTLVLANIDDLFDREELSAAPDPGWPDCFNSGVFVYQPSVETYNQLLHLASEQGSFDGGDQGILNTFFSSWATTDIRKHLPFIYNLSSISIYSYLPAFKVFGASAKVVHFLGRVKPWNYTYDPKTKSVKSEAHDPNMTHPEFLILWWNIFTTNVLPLLQQFGLVKDTCSYVNVEDVSGAISHLSLGEIPAMAQPFVSSEERKERWEQGQADYMGADSFDNIKRKLDTYLQ
notes: also called hsGYG1-GN1; hGYG1-GN1
Q: For B1, which “stoichiometry N” value (hisMBP-TRIM7-CC-PRYSPRY) is on record?
A: Its value is 1.

B2: rabbit glycogenin-1, full length (natural protein)
chain: MTDQAFVTLTTNDAYAKGALVLGSSLKQHRTSRRLAVLTTPQVSDTMRKALEIVFDEVITVDILDSGDSAHLTLMKRPELGVTLTKLHCWSLTQYSKCVFMDADTLVLANIDDLFEREELSAAPDPGWPDCFNSGVFVYQPSVETYNQLLHVASEQGSFDGGDQGLLNTFFNSWATTDIRKHLPFIYNLSSISIYSYLPAFKAFGANAKVVHFLGQTKPWNYTYDTKTKSVRSEGHDPTMTHPQFLNVWWDIFTTSVVPLLQQFGLVQDTCSYQHVEDVSGAVSHLSLGETPATTQPFVSSEERKERWEQGQADYMGADSFDNIKKKLDTYLQ
notes: vector pOPTH; also called rbGYG1; full-length rbGYG1
Q: Does B2 bind (mouse TRIM7-PRYSPRY)?
A: Result: binds

Q: Which Kd (human hisTRIM7-PRYSPRY) does the source give for AAAAALQ here?
A: Its Kd is 8 µM.

B3: mouse glycogenin-1, full length (natural protein)
chain: MTDQAFVTLTTNDAYAKGALVLGSSLKQHRTTRRMVVLTSPQVSDSMRKVLETVFDDVIMVDVLDSGDSAHLTLMKRPELGITLTKLHCWSLTQYSKCVFMDADTLVLSNIDDLFEREELSAAPDPGWPDCFNSGVFVYQPSIETYNQLLHLASEQGSFDGGDQGLLNTYFSGWATTDITKHLPFVYNLSSISIYSYLPAFKAFGKNAKVVHFLGRTKPWNYTYNPQTKSVNCDSQDPTVSHPEFLNLWWDTFTTNVLPLLQHHGLVKDASSYLMMEHVSGALSDLSFGEAPAAPQPSMSSEERKERWEQGQADYMGADSFDNIKRKLDTYLQ
notes: also called mGYG1; mGYG
Q: Does B3 bind (mouse TRIM7-PRYSPRY)?
A: Result: binds
